Test results reported in patent US8620595B2, “Methods for determining the retention of peptides in reverse phase chromatography using linear solvent strength theory” (University of Manitoba, priority 2010, dated 2013).

Assay: Isocratic elution measurement of slope S (log k vs. φ plots), RP-HPLC with UV detection
Assay type: physicochemical
Settings: Luna C18(2) column, water/acetonitrile with 0.1% formic acid, 22-23° C.
Procedure: Chromatography. All chromatographic experiments were conducted at a controlled temperature of 22-23° C. For isocratic measurement of the slope values, a micro-Agilent 1100 Series system (Agilent Technologies, Wilmington, Del.), was used with a 1 mm×100 mm 5 μm Luna C18(2) (Phenomenex, Torrance, Calif.) column and a UV detector operated at 214 nm. Both eluents A (water) and B (acetonitrile) contained 0.1% formic acid as ion-pairing modifier. Stock solutions of the 11 standard peptides (˜1 mg/ml) were prepared by dissolving each peptide in 1 ml of 0.1% FA in water or a 20% acetonitrile solution. Ten microliters of sample was injected. Individual peptides were diluted to provide ˜0.5-1 μg injection of each component using a 10 μl loop. The dead volume of the column and connecting tubings was determined by injecting a non-retained compound (water) and measuring the elution time of the negative peak at a 150 μL/min flow rate. Retention factors for isocratic elution were calculated using the formula: k=(tR−t0)/t0c; where tR is the retention time, t0 is the system (column and tubings) dead time, and t0c is the column dead time. Additional details of measuring S-values via constructing log k vs. φ plots are provided elsewhere.^24 The nano-LC MS/MS experiments were conducted using splitless Tempo LC system (Eksigent, Dublin, Calif.) with 20 μL sample injection via a 300 μm×5 mm PepMap100 (Dionex, Sunnyvale, Calif.) trap-column and a 100 μm×200 mm analytical column packed with 5 μm Luna C18(2) (Phenomenex, Torrance, Calif.). Tryptic digests of the mixtures were spiked with calibrating peptides (see Table 1) as described above, injected on the trap-column using buffer A as a carrier and separated using 0.1875, 0.375 and 0.75 percent acetonitrile per minute linear gradients starting from 0.5% acetonitrile at 500 nL/min flow rate. The composition of both eluents A and B was identical to one described above for normal-flow system. Gradient programs consisted of a 0.5-40% linear increase of buffer B in 213.2, 106.6 and 53.3 minutes, respectively. After each run the gradient columns were washed with 80% B for 3 minutes and equilibrated with the starting A:B ratio for 18 minutes.
Accordingly, for the determination of S-values of the set of synthetic peptides we used an isocratic elution procedure, despite it being extremely labor intense.^23 Isocratic measurements consist of determining retention times of peptides at several constant acetonitrile concentrations and plotting experimental Eqn. 1 for each peptide.
These two ways of measurement have been combined to provide a highly accurate and fast way of determining S for an extensive sets of peptides (see FIG. 3). First, precise isocratic measurement of S is performed in normal flow conditions with UV detection for a set of synthetic “S-calibrating” peptides. Similar to the previously described peptide mixture P1-P6 designed to cover wide range of hydrophobicities, these peptides were chosen to cover wide range of S-values (Table 1). Second—a tryptic digest of the bovine proteins mixture (model mixture) is spiked with the “S-calibrating” peptides and run under two different gradient slopes in nano-flow RP-HPLC MS: 0.75 and 0.1875% acetonitrile per minute in our case. Third—retention times are assigned for all identified species. Fourth—retention time shifts in acetonitrile percentage (ACN %) units relative to P3 were determined as: Δ=(tR 0.75−tRP3 0.75)*0.75−(tR 0.1875−tRP3 0.1875)*0.1875 (3); where tR 0.75 and tRP3 0.75 are the retention times of any peptide and reference P3 at 0.75% per minute, and tR 0.1875 and tRP3 0.1875 are the retention times of any peptide and reference P3 at 0.1875% acetonitrile per minute gradient, respectively. Fifth—an experimental Δ vs. S curve was plotted for S-calibrating peptides (FIG. 3). Sixth—S values were extracted from this dependence for all peptides observed in both nano-RP-HPLC MS runs by extrapolation of experimental Δ on this plot.

| Substance | Slope (S in the basic LSS equation) |
| --- | --- |
| LLGGGGDFR [Peptide 2] | 24.76 |
| LLGGSLSSLHAAFR [Peptide 10, synthetic S-calibrating peptide] | 33.81 |
| LLLGGDFR [Peptide 3, synthetic S-calibrating peptide] | 21.46 |
| LLLLDFR [Peptide 4, synthetic S-calibrating peptide] | 21.78 |
| LLLLLDFR [Peptide 5, synthetic S-calibrating peptide] | 22.76 |
| LLSLADFG [Peptide 8, synthetic S-calibrating peptide] | 19.2 |

Same assay, conditions: Luna C18(2) column, water/acetonitrile with 0.1% formic acid, 22-23° C., listed as P3

| Substance | Slope (S in the basic LSS equation) |
| --- | --- |
| LLGGGGDFR [Peptide 2] | 24.76 |
